Values of other authors in publication PMC8246649 (Biochemistry, 2021).
pKd: −log10 of the molar value.

Legend:
UNC119A = UNC119A (Homo sapiens, UniProt Q13432); details: read-out: Reported Kd of release factor to UNC119A
UNC119B = UNC119B (Homo sapiens, UniProt A6NIH7); details: read-out: Reported Kd of release factor to UNC119B
UNC119B, sequence (A6NIH7 whole entry): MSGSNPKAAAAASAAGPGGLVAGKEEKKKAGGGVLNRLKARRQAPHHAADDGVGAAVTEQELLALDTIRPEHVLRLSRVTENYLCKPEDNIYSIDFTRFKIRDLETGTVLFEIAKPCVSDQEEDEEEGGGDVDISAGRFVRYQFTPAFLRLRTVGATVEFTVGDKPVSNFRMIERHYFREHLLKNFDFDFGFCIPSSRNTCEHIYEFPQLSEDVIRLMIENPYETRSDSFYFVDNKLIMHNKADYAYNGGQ

ARL2: ADP ribosylation factor-like protein 2, release factor of UNC119 cargo
pKd (UNC119A): 6.80 | pKd (UNC119B): 6.67

ARL3: ADP ribosylation factor-like protein 3, release factor of UNC119 cargo
pKd (UNC119B): 7.48
